Like-named read-outs stand apart in the source and are kept apart here.
Tests used:
Experiment in all cases: smFRET
[1] = molecular target: T1, human RPA (RPA70-RPA32-RPA14) (human, UniProt P27694;P15927;P35244 1-616;1-270;1-121)
yeast RPA = yeast RPA (Saccharomyces cerevisiae, UniProt P22336;P26754;P26755 1-621;1-273;1-122)
[2] = molecular target: T1, human RPA (RPA70-RPA32-RPA14); remark: listed apart in the source

T1 sequence (P27694 whole entry, chain 1 of 3): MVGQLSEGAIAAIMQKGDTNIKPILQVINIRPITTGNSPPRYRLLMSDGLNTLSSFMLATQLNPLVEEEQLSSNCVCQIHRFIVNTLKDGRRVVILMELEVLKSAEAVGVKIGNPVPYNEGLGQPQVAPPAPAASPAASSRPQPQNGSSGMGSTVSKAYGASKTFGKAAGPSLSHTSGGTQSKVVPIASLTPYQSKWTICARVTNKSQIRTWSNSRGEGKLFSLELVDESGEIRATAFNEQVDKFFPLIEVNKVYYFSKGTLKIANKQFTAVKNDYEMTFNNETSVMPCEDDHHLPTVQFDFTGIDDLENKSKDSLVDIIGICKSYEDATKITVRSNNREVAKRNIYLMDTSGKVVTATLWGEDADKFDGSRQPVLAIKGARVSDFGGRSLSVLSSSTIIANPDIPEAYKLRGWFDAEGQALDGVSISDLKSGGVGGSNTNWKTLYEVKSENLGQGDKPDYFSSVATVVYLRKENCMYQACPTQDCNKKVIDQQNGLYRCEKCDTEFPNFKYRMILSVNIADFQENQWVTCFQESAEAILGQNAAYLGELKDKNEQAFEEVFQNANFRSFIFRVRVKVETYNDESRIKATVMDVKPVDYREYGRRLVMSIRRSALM
T1 sequence (P15927 whole entry, chain 2 of 3): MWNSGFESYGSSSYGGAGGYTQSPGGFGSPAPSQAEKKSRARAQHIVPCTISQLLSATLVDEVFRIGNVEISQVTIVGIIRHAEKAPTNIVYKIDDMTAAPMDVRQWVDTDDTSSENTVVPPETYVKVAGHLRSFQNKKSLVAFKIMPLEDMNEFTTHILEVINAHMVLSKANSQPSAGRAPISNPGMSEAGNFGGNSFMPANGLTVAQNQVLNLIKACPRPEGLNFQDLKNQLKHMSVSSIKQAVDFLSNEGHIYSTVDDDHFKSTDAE
T1 sequence (P35244 whole entry, chain 3 of 3): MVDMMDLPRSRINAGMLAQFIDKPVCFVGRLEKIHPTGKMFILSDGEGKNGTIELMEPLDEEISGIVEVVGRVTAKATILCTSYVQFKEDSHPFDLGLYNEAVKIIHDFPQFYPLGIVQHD
Sequence of yeast RPA (P22336 whole entry, chain 1 of 3): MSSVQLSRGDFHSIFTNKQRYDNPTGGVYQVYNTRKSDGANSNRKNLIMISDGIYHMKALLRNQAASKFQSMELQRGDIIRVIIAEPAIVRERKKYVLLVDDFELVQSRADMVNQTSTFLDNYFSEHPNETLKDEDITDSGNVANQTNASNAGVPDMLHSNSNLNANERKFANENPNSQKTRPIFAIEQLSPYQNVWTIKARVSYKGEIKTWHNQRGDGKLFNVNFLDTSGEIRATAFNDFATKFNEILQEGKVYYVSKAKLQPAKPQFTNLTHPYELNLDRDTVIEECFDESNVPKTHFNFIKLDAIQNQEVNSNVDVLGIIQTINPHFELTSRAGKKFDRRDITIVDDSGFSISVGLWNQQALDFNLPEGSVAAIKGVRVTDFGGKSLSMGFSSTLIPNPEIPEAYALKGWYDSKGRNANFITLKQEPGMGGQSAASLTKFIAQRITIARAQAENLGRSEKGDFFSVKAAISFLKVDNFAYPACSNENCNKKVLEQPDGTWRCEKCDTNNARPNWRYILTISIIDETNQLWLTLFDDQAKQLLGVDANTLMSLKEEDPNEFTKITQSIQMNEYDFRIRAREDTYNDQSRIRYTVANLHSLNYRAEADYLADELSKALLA
Sequence of yeast RPA (P26754 whole entry, chain 2 of 3): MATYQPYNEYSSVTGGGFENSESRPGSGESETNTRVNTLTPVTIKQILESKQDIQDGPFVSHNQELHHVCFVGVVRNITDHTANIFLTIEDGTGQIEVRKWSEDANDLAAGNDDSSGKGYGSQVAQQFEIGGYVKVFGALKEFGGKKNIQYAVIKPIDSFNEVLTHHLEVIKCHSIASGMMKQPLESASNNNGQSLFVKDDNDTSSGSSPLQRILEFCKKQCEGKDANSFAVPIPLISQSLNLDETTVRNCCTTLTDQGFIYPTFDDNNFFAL
Sequence of yeast RPA (P26755 whole entry, chain 3 of 3): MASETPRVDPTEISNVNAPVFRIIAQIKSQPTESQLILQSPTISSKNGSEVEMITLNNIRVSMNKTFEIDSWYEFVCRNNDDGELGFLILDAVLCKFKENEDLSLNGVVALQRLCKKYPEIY

TTTTTTTTTTTTTTTTTTTTTTTTTTTTTT (ssDNA) [(dT)30]
binding result [1]: binds

TTTTTTTTTTTTTTTTTTTTTTTTT (ssDNA) [(dT)25]
binding result (yeast RPA): binds
binding result [2]: binds

TTTTTTTTTTTTTTT (ssDNA) [(dT)15]
binding result [1]: binds

TTTTTTTTTTTTTTTTTTTTTTTTTTTTTTTTTTTTTTTTTTTTT (ssDNA) [(dT)45]
binding result [1]: binds

— paper PMC11514480
